# Assay results taken from patent US20170204184A1 (CB THERAPEUTICS, published 2017).
# What was measured:
# [1] = target: T1, PD-L1 on 293T cells (UniProt Q9NZQ7 19-290); assay: flow cytometry competition: blocks biotin-labeled PD-1 binding to PD-L1-293T cells
# T1 construct: whole, on cells; also called PD-L1-293T; 293T-PD-L1 cells
# Protocol: Briefly, PD-L1-293T cells were suspended in FACS buffer (PBS with 3% fetal calf serum). Various concentrations of the hybridoma (FIG. 10), chimeric (FIG. 11), or humanized (FIG. 12) anti-PD-L1 antibodies were added to the cell suspension and incubated at 4° C. for 60 minutes in 96 well plates. […] The cells were washed 3 times with PBS and incubated with mouse anti-biotin PE (Biolegend, cat# 409004). The cell-associated fluorescence was then detected by flow cytometry analysis using FACS array.
# [2] = target: T1, PD-L1 on 293T cells; assay: flow cytometry on PD-L1-293T cells
# Protocol: Cell binding analyses of anti-PD-L1 antibodies were performed based on binding to a 293T cell line stably expressing PD-L1 (PD-L1-293T). 2×10⁵ 293T-PD-L1 cells were added into each well of 96-well culture plates and incubated with the indicated antibody (20 μg/ml with the dilution of 1:5) at 4° C. for 1 h. After the cells were washed three times with FACS buffer, the secondary antibody (PE Goat anti-mouse: 1:200; PE mouse anti-human: 1:10) was added to the cells at 100 μl/well, and incubated at 4° C. for 40 min. Cells were washed three times with FACS buffer and analyzed by FACS Array.
# [3] = target: T2, hPD-L1-mFc (human); assay: ELISA, coated PD-L1-mFc
# T2 construct: it may hold a signal peptide; also called human PD-L1-mFc; PD-L1-mFc (Crownbio)
# Protocol: ELISA binding analyses were conducted based on human PD-L1-mFc (for chimeric and humanized antibody detection) and PD-L1-hFc protein (for hybridoma antibody detection). 96-well plates (Costar, Cat No: 9018) were coated with 100 μL of 2 μg/ml PD-L1-mFc (Crownbio) in coating buffer PBS (Hyclone, Cat No: SH30256.01B) overnight at 4° C. The wells were aspirated and non-specific binding sites were blocked by adding 200 μL of blocking buffer (PBS with 1% (w/v) of bovine serum albumin (BSA, Roche, Cat No:738328)) and incubating for 1 hour at 37° C. After the plates were washed three times with wash buffer (PBS with 0.05% (v/v) Tween20 (Sigma, Cat No:P1379)), 100 μL/well of 1:10 serial dilutions of hybridoma (FIG. 1), chimeric (FIG. 2), or humanized (FIG. 3) anti-PD-L1 antibodies in blocking buffer (starting from 20 μg/mL) were added and incubated at room temperature for 1 hour. The plates were washed and incubated with 100 μL/well of Goat anti-Mouse IgG (H+L) (Thermo, Cat No: 31432) in blocking buffer for 60 min. After the plates were washed, 100 μL/well of substrate solution TMB (eBioscience, Cat No: 00-4201-56) were added and the plates were incubated for 2 min at room temperature. 100 μL/well of stop solution (2N H₂SO₄) was added to stop the reaction. The colorimetric signals were developed and read at 450 nm using an Auto Plate SpectraMax Plus (Supplier: Moleculer Devices; Model: MNR0643; Software: SoftMax Pro v5.4). Data were analyzed using GraphPad Prism 5 and EC50 was calculated (FIGS. 1-3; Tables 5-7).
# [4] = target: T3, biotinylated human PD-L1-mFc (human, biotinylated (sites not given)); assay: competition ELISA: blocks PD-L1-mFc-biotin binding to coated PD-1-hFc
# T3 construct: also called PDL-1-mFc-biotin
# Protocol: The wells were aspirated and non-specific binding sites were blocked by adding 200 μL of blocking buffer (PBS with 1% (w/v) of bovine serum albumin (BSA, Roche, Cat No:738328)) and incubating for 1 hour at 37° C. After the plate was washed three times with wash buffer (PBS with 0.05% (v/v) Tween20 (Sigma, Cat No:P1379)), 100 μL/well of 1:3 serial dilutions of hybridoma (FIG. 4), chimeric (FIG. 5), or humanized (FIG. 6) anti-PD-L1 antibodies in blocking buffer (starting from 20 μg/mL) were added and incubated at 37° C. for 1 hour. […] After the plate was washed 3 times, secondary antibody (Avidin HRP eBioscience cat No.: E07418-1632, 1:500, 100 μl/well) was added and incubated at 37° C. for 0.5 hour. After the plate was washed, 100 μL/well of substrate solution TMB (eBioscience, Cat No: 00-4201-56) was added and the plate was incubated for 3min at room temperature. 100 μL/well of stop solution (2N H₂SO₄) was added to stop the reaction. The colorimetric signals were developed and read at 450 nm using an Auto Plate SpectraMax Plus (Supplier: Moleculer Devices; Model: MNR0643; Software: SoftMax Pro v5.4). Data were analyzed using GraphPad Prism 5 and IC50 was calculated (FIGS. 4-6; Tables 8-10).
IC50 [1],EC50 [2],EC50 [3],IC50 [4],Binder
0.0404 µg/mL,0.0583 µg/mL,0.0821 µg/mL,1.01 µg/mL,"ch5G11-hIgG1 (antibody, Mouse-human chimeric IgG1 (D265A), human kappa; also called Chimeric 5G11-IgG1 (D265A); ch-5G11-IgG1) heavy: not shown light: SIVMTQTPKFLLVSAGDRVTITCKASQSVSNDVAWYQQKPGQSPKLLIYYAANRYTGVPDRFTGSGYGTDFTFTISIVQAEDLAVYFCQQDYTSPYTFGGGTKLEIKRTVAAPSVFIFPPSDEQLKSGTASVVCLLNNFYPREAKVQWKVDNALQSGNSQESVTEQDSKDSTYSLSSTLTLSKADYEKHKVYACEVTHQGLSSPVTKSFNRGEC"
0.0332 µg/mL,0.0897 µg/mL,0.09 µg/mL,0.926 µg/mL,"ch5G11-hIgG4 (antibody, Mouse-human chimeric IgG4 (F234A/L235A), human kappa; also called Chimeric 5G11-IgG4 (F234A/L235A); ch-5G11-IgG4) heavy: not shown light: SIVMTQTPKFLLVSAGDRVTITCKASQSVSNDVAWYQQKPGQSPKLLIYYAANRYTGVPDRFTGSGYGTDFTFTISIVQAEDLAVYFCQQDYTSPYTFGGGTKLEIKRTVAAPSVFIFPPSDEQLKSGTASVVCLLNNFYPREAKVQWKVDNALQSGNSQESVTEQDSKDSTYSLSSTLTLSKADYEKHKVYACEVTHQGLSSPVTKSFNRGEC"
0.0185 µg/mL,0.08 µg/mL,0.0856 µg/mL,1.2 µg/mL,"hu13C5-hIgG1 (antibody, Humanized IgG1 with D265A; also called Humanized 13C5-IgG1 (D265A); hu-13C5-IgG1) heavy: not shown light: DIVLTQSPASLAVSPGQRATITCRASQSVSTSSSSFMHWYQQKPGQPPKLLIKYASNLESGVPARFSGSGSGTDFTLTINPVEANDTANYYCQHSWEIPYTFGQGTKLEIKRTVAAPSVFIFPPSDEQLKSGTASVVCLLNNFYPREAKVQWKVDNALQSGNSQESVTEQDSKDSTYSLSSTLTLSKADYEKHKVYACEVTHQGLSSPVTKSFNRGEC"
0.0499 µg/mL,0.0804 µg/mL,0.127 µg/mL,1.19 µg/mL,"hu13C5-hIgG4 (antibody, Humanized IgG4 with F234A and L235A; also called Humanized 13C5-IgG4 (F234A/L235A); hu-13C5-IgG4) heavy: not shown light: DIVLTQSPASLAVSPGQRATITCRASQSVSTSSSSFMHWYQQKPGQPPKLLIKYASNLESGVPARFSGSGSGTDFTLTINPVEANDTANYYCQHSWEIPYTFGQGTKLEIKRTVAAPSVFIFPPSDEQLKSGTASVVCLLNNFYPREAKVQWKVDNALQSGNSQESVTEQDSKDSTYSLSSTLTLSKADYEKHKVYACEVTHQGLSSPVTKSFNRGEC"
0.0165 µg/mL,0.0479 µg/mL,0.0495 µg/mL,0.794 µg/mL,"hu5G11-hIgG1 (antibody, Humanized IgG1 with D265A; also called Humanized 5G11-IgG1 (D265A); hu-5G11-IgG1) heavy: not shown light: DIQMTQSPSSLSASVGDRVTITCKASQSVSNDVAWYQQKPGKAPKLLIYYAANRYTGVPDRFSGSGYGTDFTFTISSLQPEDIATYFCQQDYTSPYTFGQGTKLEIKRTVAAPSVFIFPPSDEQLKSGTASVVCLLNNFYPREAKVQWKVDNALQSGNSQESVTEQDSKDSTYSLSSTLTLSKADYEKHKVYACEVTHQGLSSPVTKSFNRGEC"
0.0096 µg/mL,0.0543 µg/mL,0.0699 µg/mL,0.823 µg/mL,"hu5G11-hIgG4 (antibody, Humanized IgG4 with F234A and L235A; also called Humanized 5G11-IgG4 (F234A/L235A); hu-5G11-IgG4) heavy: not shown light: DIQMTQSPSSLSASVGDRVTITCKASQSVSNDVAWYQQKPGKAPKLLIYYAANRYTGVPDRFSGSGYGTDFTFTISSLQPEDIATYFCQQDYTSPYTFGQGTKLEIKRTVAAPSVFIFPPSDEQLKSGTASVVCLLNNFYPREAKVQWKVDNALQSGNSQESVTEQDSKDSTYSLSSTLTLSKADYEKHKVYACEVTHQGLSSPVTKSFNRGEC"
